How the values were obtained:
holotransducin = holotransducin (Homo sapiens, UniProt P11488); assay: Effects of GDP concentration on the basal exchange of GTPγS by holotransducin; assay type: biochemical; settings: 10 Minutes
Description: (§1) Chimeric or bacteriorhodopsin protein (1.7 uM) was incubated with 0.8 uM holotransducin with 10 nM ^35S radiolabeled GTPyS in buffer (20 mM Hepes (pH 7.5), 5 mM MgCl2, 1 mM DTT, 0.1 mM EDTA, and 20 mM NaCl). The reaction was incubated at 30° C. for 5, 10, 15 or 30 minutes. The reaction was terminated by transferring aliquots of the reaction mixture to nitrocellulose filters (0.45 um) prewetted with wash buffer (10 mM Tris (pH 7.5), 5 mM MgCl2, 100 mM NaC1, 0.1 mM EDTA) and placed on a vacuum manifold. The filters were then washed with 8 ml of wash buffer. The filters were then placed overnight in scintillation vials filled with 20 ml of scintillation cocktail. The activity of the vials was counted by a Liquid Scintillation Counter. For the BR-Rhodopsin loop 3 chimeras, in which the rhodopsin intracellular loop 3 replaced the native BR intracellular loop 3 and was fused from T157 on BR TM 5 to V167 on BR TM 6, activity was determined by an increased uptake of GTPS over basal exchange by transducin alone.
The next set of experiments was designed to measure the effects of GDP concentration on the basal exchange of GTPγS by holotransducin.

transducin = transducin (Homo sapiens, UniProt P11488); assay: GTPyS exchange assay in the presence of high affinity analog or random peptide; assay type: biochemical; settings: for % Inhibition of GTPγS Uptake (Controlled for Peptide inhibition of Basal Exchange): 3C; for % Inhibition of GTPγS Uptake (Controlled for Peptide inhibition of Basal Exchange) / Specific counts (Lattice Form) / SPECIFIC COUNTS: (Lattice Form): 10 Minutes
transducin, sequence (P11488 2-350 limits assumed): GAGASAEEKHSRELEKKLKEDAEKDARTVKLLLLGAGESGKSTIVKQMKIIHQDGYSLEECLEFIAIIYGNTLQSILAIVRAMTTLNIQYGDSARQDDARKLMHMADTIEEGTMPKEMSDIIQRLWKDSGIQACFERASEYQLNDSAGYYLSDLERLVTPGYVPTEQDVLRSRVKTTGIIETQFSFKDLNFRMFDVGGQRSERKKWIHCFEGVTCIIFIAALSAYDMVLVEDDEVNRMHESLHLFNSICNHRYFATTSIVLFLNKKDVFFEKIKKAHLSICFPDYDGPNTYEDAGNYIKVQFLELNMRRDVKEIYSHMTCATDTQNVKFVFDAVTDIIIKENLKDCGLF
transducin, sequence (P62873 2-340 partner limits assumed): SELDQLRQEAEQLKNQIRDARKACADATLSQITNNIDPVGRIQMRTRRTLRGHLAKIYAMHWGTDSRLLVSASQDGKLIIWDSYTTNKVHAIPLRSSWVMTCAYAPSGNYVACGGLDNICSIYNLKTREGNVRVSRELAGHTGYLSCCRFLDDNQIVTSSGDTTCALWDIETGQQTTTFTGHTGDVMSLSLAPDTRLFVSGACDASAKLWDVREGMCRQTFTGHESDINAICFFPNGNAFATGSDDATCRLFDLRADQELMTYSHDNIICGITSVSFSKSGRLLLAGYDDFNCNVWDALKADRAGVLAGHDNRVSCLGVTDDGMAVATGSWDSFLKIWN
transducin, sequence (P63211 2-71 partner limits assumed): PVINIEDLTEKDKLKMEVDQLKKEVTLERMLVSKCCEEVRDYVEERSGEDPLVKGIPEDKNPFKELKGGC
Description: as §1
The high affinity analog has the sequence V-L-E-D-L-K-S-C-G-L-F-G (SEQ ID NO:43) (J. Biol. Chem. 271 pp. 361-366, 1996).
The random peptide consists of the sequence S-S-V-F-L-V-V-D-R-S-R (SEQ ID NO:44).
The addition of the high affinity analog at a final concentration of 8 uM gave the following results.
The second inhibition experiment used 50 uM of the high affinity analog.

[1] = Basal Exchange (no chimera) + 8 uM peptide

holotransducin, sequence (P11488 2-350 limits assumed): as the sequence (P11488 2-350 limits assumed) above
holotransducin, sequence (P62873 2-340 partner limits assumed): as the sequence (P62873 2-340 partner limits assumed) above
holotransducin, sequence (P63211 2-71 partner limits assumed): as the sequence (P63211 2-71 partner limits assumed) above

Row | Compound | Specific counts (Lattice Form) (holotransducin; Basal Exchange + 10 uM GDP) [counts] | Specific counts (Lattice Form) (holotransducin; Basal Exchange + 50 uM GDP) [counts] | Specific counts (Lattice Form) (holotransducin; Basal Exchange + 100 uM GDP) [counts] | % Inhibition of GTPγS Uptake (Controlled for Peptide inhibition of Basal Exchange) (transducin; 8 uM peptide) [%] | % Inhibition of GTPγS Uptake (Controlled for Peptide inhibition of Basal Exchange) (transducin; 50 uM peptide) [%] | Specific counts (Lattice Form) (transducin; 3C + 8 uM peptide) [counts] | SPECIFIC COUNTS: (Lattice Form) (transducin; 3C + 50 uM peptide) [counts] | Specific counts (Lattice Form) (transducin; [1]) [counts] | SPECIFIC COUNTS: (Lattice Form) (transducin; Basal Exchange (no chimera) + 50 uM peptide) [counts] | Effect on chimera-enhanced GTP-GDP exchange (transducin; presence of peptide)
1 | Nc1nc2c(ncn2[C@@H]2O[C@H](COP(=O)(O)OP(=O)(O)O)[C@@H](O)[C@H]2O)c(=O)[nH]1 [GDP] | 22885 | 11061 | 7502 |  |  |  |  |  |  | 
2 | S-S-V-F-L-V-V-D-R-S-R (SSVFLVVDRSR) [Random peptide] |  |  |  | 5.8 | 30 | 47516 | 35568 | 23868 |  | 
3 | V-L-E-D-L-K-S-C-G-L-F-G (VLEDLKSCGLFG) [High affinity analog] |  |  |  | 23 | 70 | 42455 | 46892 | 23154 | 33888 | inhibited

From US20040248202A1, “Bacteriorhodopsin/G protein-coupled receptor chimeras” (Wisconsin Alumni Research Foundation, priority 1998, published 2004)
